Experimental data published in patent US20200129630A1, “METHODS FOR TREATING CANCER” (BicycleRD Limited, priority 2018, published 2020).
“And” between values parts separate entries of the source, which are not always exact repeats. Equal values may be shown once. Numbered stars: 1 amine (or outer) side, 2 acyl side, 3 side chain; on linkers, the order of the positions; unused ones are H or OH. Bridge positions count the residues as written; N and C are the ends. Square brackets hold non-standard residues; d marks the D form. Peptide text beside a SMILES is read from it. * marks the point of attachment. X1 = COc1cc2cc(c1Cl)N(C)C(=O)C[C@H](OC(=O)[C@H](C)N(C)C(=O)CCSSC(C)CCC(=O)*)[C@]1(C)O[C@H]1[C@H](C)[C@@H]1C[C@@](O)(NC(=O)O1)[C@H](OC)/C=C/C=C(\C)C2; 1Nal = N[C@@H](Cc1cccc2ccccc12)C(=O)O; TBMB = c1c(C[*:1])cc(C[*:3])cc1C[*:2]; Tle = CC(C)(C)[C@H](N)C(=O)O; βAla = NCCC(=O)O; Sar = CNCC(=O)O

How the values were obtained:
[1] = Sprague Dawley rat PK study; format: in vivo; settings: plasma, 15 mg/m2, male, 15 mg/m^2 IV
[2] = test system: MDA-MB-231; assay: In vitro cytotoxicity (CellTiter-Glo) MDA-MB-231; format: cell-based; settings: MDA-MB-231, Breast
Description: (§1) Table 1 and Table 2 Notes: in general regression and stable disease correlated with the in vitro cytotoxicity and MT1-MMP expression. Female BALB/c mice n=3/group animals dosed twice per week except EBC-1 three per week. Tumor growth inhibition (TGI) (%)=[1−(Ti−T0)/(Vi−V0)]×100; Ti is the average tumor volume of a treatment group on a given day, TO is the average tumor volume of the treatment group on the day of treatment start, Vi is the average tumor volume of vehicle control group on the same day with Ti, and V0 is the average tumor volume of vehicle group on the day of treatment start. A one-way ANOVA was performed to compare tumor volume among groups, and when a significant F-statistics (a ratio of treatment variance to the error variance) was obtained, comparisons between groups were carried out with Games-Howell test. All data were analyzed using GraphPad Prism.* p<0.05, ** p<0.01, *** p<0.001. In vitro cytotoxicity was measured by CellTiter-Glo®, MT1-MMP membrane H score from immunohistochemistry staining, NM not measured. Tumor size on Day 1 of dosing.

[3] = test system: NCI-H1975; assay: In vitro cytotoxicity (CellTiter-Glo) NCI-H1975; format: cell-based; settings: NCI-H1975, NSCLC
Description: as §1

[4] = Distribution into blood cells; format: in vitro ADME; settings: comparable across human and all preclinical species tested
[5] = Clinical pharmacokinetics of BT1718, 1 h intravenous infusion; format: in vivo, patients; settings: for clearance / half-life / Vd: human, plasma
Description: Intact BT1718 and total DM1 (DM1 in BT1718, any peptidyl-DM1 metabolites of BT1718, and other DM1-containing mixed disulfides and free DM1) will be measured in plasma according to agreed standard operating procedures (SOPs) and validated methods in Phase I, dose escalation phase (Stage 1 and 2) and potentially in Phase IIa, expansion phase (Parts A and B), dependent on emerging data.
The plasma concentration/time data will be analyzed using non-compartmental methods. The PK parameters to be determined for intact BT1718 include Cmax, Tmax, AUC, t1/2, total body clearance (CLT) and Vdss. The PK parameters to be determined for total DM1 include Cmax, Tmax, AUC and t1/2.
The preliminary clinical pharmacokinetic data for BT1718 following a 1 hour intravenous infusion to patients are shown in Table 13 below.

[6] = LC-MS/MS quantification of DM1 in patient tumor samples; format: in vivo, patients; settings: three patient tumor samples
Protocol: A quantitative high performance liquid chromatography-tandem mass spectrometry (LC-MS/MS) method for the quantification of DM1 in tissue samples was developed.
DM1 was administered as complexed with a bicyclic peptide in […]. In order to determine the concentration of the free DM1 the conjugated molecule was reduced and subsequently derivatized with vinyl pyridine.
The same sample preparation procedure used for PK determination in the GLP pre-clinical studies, is applied for the determination of DM1 in tissue samples, In short: after tissue homogenization samples were reduced with TCEP prior derivatization by vinyl-pyiridine. […]
The homogenization method was optimized as follows: • 1) Thaw the tissue samples at room temperature. • 2) Weight the desired amount of tissue in a Precellys 2 mL Reinforced tube on an Analytical Balance. • 3) Use the weight of the tissue to calculate the volume of solution. […] Homogenization solution: (NaCl (0.9%): SDS (0.2 mg/mL) (50:50 v/v %)) • 4) Add the calculated amount of solution to the tissue. • 5) Vortex for approximately 5 seconds. • 6) Pre-cool the samples in a wet ice bath for approximately 8 minutes • 7) Run the Precellys-24 Dual homogenizer at 5000 rpm in five sessions of 40 seconds. • 8) Centrifuge the homogenate samples 3 minutes at 3000 rpm at 4° C. using a 5810-R centrifuge.

[7] = GLP-compliant 28-day repeat dose toxicity study, monkey; format: in vivo, Cynomolgus monkeys
Protocol: In a GLP-compliant study in Cynomolgus monkeys, the highest non-severely toxic dose (HNSTD) of BT1718 was established to be 18 mg/m^2 administered twice weekly, equivalent to a human dose of 0.48 mg/kg. In a GLP-compliant study in the rat, the MTD was not reached with the highest administered dose 6 mg/m^2 twice weekly. At this dose level, there was kidney toxicity (with no effect on clinical condition) and also testicular toxicity. After 28 days off-dose, there was evidence of partial recovery of kidney-related findings, but no recovery of testicular effects at this dose level. […] Therefore, the MTD for rat for twice weekly dosing was considered to be between 1 and 1.5 mg/kg.

[8] = 9.6 mg/m^2, 1 h IV infusion, individual patients

Q: For `COc1cc2cc(c1Cl)N(C)C(=O)C[C@H](OC(=O)[C@H](C)N(C)C(=O)CCSSC(C)CCC(=O)NCCC(=O)N(C)CC(=O)N(C)CC(=O)N(C)CC(=O)N(C)CC(=O)N(C)CC(=O)N(C)CC(=O)N(C)CC(=O)N(C)CC(=O)N(C)CC(=O)N(C)CC(=O)N[C@@H](C)C(=O)N[C@H]1CSCc3cc4cc(c3)CSC[C@H](NC(=O)[C@@H](C)NC(=O)[C@H](Cc3cccc5ccccc35)NC(=O)[C@H](CCC(=O)O)NC(=O)[C@H](CC(N)=O)NC(=O)[C@@H](C)NC1=O)C(=O)N[C@@H](CCC(=O)O)C(=O)N[C@@H](CC(=O)O)C(=O)N[C@@H](Cc1ccccc1)C(=O)N[C@@H](Cc1ccc(O)cc1)C(=O)N[C@@H](CC(=O)O)C(=O)N[C@@H](C(C)(C)C)C(=O)N[C@H](C(N)=O)CSC4)[C@]1(C)O[C@H]1[C@H](C)[C@@H]1C[C@@](O)(NC(=O)O1)[C@H](OC)/C=C/C=C(\C)C2` (stereo partly shown) [BT1718] ({X1-βAla}-[Sar][Sar][Sar][Sar][Sar][Sar][Sar][Sar][Sar][Sar]AC[dA]NE[1Nal][dA]CEDFYD[Tle]C-NH2; linker 12-18-25 via TBMB (inferred)), which AUC [1] is on record?
A: 1.5 ± 0.2 µM·h

Q: What about the clearance [1] of the same molecule?
A: 9.4 ± 1.1 mL/min/kg

Q: And the half-life [1]?
A: 33.6 ± 6.6 min

Q: And the Cmax ([1]; read-out: C0/Cmax)?
A: 4.2 ± 1.1 µM

Q: What about the Vd ([1]; read-out: Vdss) of the same molecule?
A: 0.29 ± 0.03 L/kg

Q: What about the IC50 [2] of the same molecule?
A: 39.8 nM

Q: And the IC50 [3]?
A: 19.7 nM

Q: And the “distribution into blood cells” value [4]?
A: limited distribution into blood cells

Q: What about the CLp [5, 8] of the same molecule?
A: 4.4 mL/min/kg and 10.2 mL/min/kg

Q: What about the Vss [5, 8] of the same molecule?
A: 0.18 L/kg

Q: What about the t½ [5, 8] of the same molecule?
A: 17 min and 14 min

Q: And the clearance ([5]; intravenous, Data for all patients, read-out: CLp)?
A: 10 mL/min/kg

Q: And the half-life ([5]; intravenous, Data for all patients, read-out: t½)?
A: 18 min

Q: What about the clearance ([5]; intravenous, Data for cycle 1 only, read-out: CLp) of the same molecule?
A: 12 mL/min/kg

Q: And the half-life ([5]; intravenous, Data for cycle 1 only, read-out: t½)?
A: 18 min

Q: What about the clearance ([5]; intravenous, patients, read-out: Mean (±SD) plasma clearance (CLp) (converted)) of the same molecule?
A: 538 mL/min

Q: And the Vd ([5]; intravenous, patients, read-out: mean (±SD) volume of distribution (Vss))?
A: 22.9 L

Q: What about the half-life ([5]; intravenous, patients, read-out: terminal half-life (t½)) of the same molecule?
A: 12 to 60 min

Q: What about the clearance ([5]; iv, 1.2 mg/m^2, 1.2 mg/m^2, 1 h IV infusion, individual patient, read-out: CLp) of the same molecule?
A: 12.5 mL/min/kg

Q: And the Vd ([5]; iv, 1.2 mg/m^2, 1.2 mg/m^2, 1 h IV infusion, individual patient, read-out: Vss)?
A: 0.23 L/kg

Q: What about the half-life ([5]; iv, 1.2 mg/m^2, 1.2 mg/m^2, 1 h IV infusion, individual patient, read-out: t½) of the same molecule?
A: 6 min

Q: And the clearance ([5]; iv, 2.4 mg/m^2, 2.4 mg/m^2, 1 h IV infusion, individual patient, read-out: CLp)?
A: 18.4 mL/min/kg

Q: And the Vd ([5]; iv, 2.4 mg/m^2, 2.4 mg/m^2, 1 h IV infusion, individual patient, read-out: Vss)?
A: 0.3 L/kg

Q: What about the half-life ([5]; iv, 2.4 mg/m^2, 2.4 mg/m^2, 1 h IV infusion, individual patient, read-out: t½) of the same molecule?
A: 6 min

Q: And the clearance ([5]; iv, 4.8 mg/m^2, 4.8 mg/m^2, 1 h IV infusion, individual patient, read-out: CLp)?
A: 13.3 mL/min/kg

Q: And the Vd ([5]; iv, 4.8 mg/m^2, 4.8 mg/m^2, 1 h IV infusion, individual patient, read-out: Vss)?
A: 0.19 L/kg

Q: What about the half-life ([5]; iv, 4.8 mg/m^2, 4.8 mg/m^2, 1 h IV infusion, individual patient, read-out: t½) of the same molecule?
A: 10 min

Q: And the Vd ([5]; iv, 9.6 mg/m^2, 9.6 mg/m^2, 1 h IV infusion, individual patients, read-out: Vss)?
A: 0.15 L/kg

Q: And the half-life ([5]; iv, 9.6 mg/m^2, 9.6 mg/m^2, 1 h IV infusion, individual patients, read-out: t½)?
A: 16 min

Q: What about the AUC vs dose ([5]; over the range 0.6-25 mg/m2) of the same molecule?
A: approximately dose proportional

Q: What about the “delivery of DM1 to tumor” value [6] of the same molecule?
A: delivery of DM1 to tumor in two patients

Q: What about the HNSTD ([7]; 28 day-repeat dose GLP monkey study, twice weekly) of the same molecule?
A: 1.5 mg/kg

Q: What about the “highest non-severely toxic dose (HNSTD)” value ([7]; Cynomolgus monkeys, GLP, twice weekly) of the same molecule?
A: 18 mg/m^2

Q: And the GI-related findings ([7]; GLP monkey)?
A: No GI-related findings

Q: What about the bladder changes ([7]; GLP monkey) of the same molecule?
A: No bladder changes

Q: What about the liver toxicity ([7]; GLP monkey up to 1.5 mg/kg, 18 mg/m^2 twice weekly) of the same molecule?
A: No liver toxicity

Q: And the “local toxicity at or around injection site” value ([7]; GLP monkey, 0.5 mg/kg (6 mg/m^2) twice weekly and above)?
A: black colouration of the skin

Q: What about the renal changes ([7]; GLP monkey, highest dose tested 1.5 mg/kg (18 mg/m^2)) of the same molecule?
A: No renal changes

Q: And the “onset dose of minimal axonal degeneration” value ([7]; GLP monkey, twice weekly)?
A: 1 mg/kg

Q: And the “HNSTD, equivalent human dose” value ([7]; from 18 mg/m^2 twice weekly in monkeys)?
A: 0.48 mg/kg

Q: And the “anti-drug antibodies (ADAs) in serum” value ([7]; monkey 28-day GLP study)?
A: negative

Q: And the reproductive organ findings ([7]; monkey studies)?
A: No changes in reproduction organs

Q: And the increase in platelets ([7]; monkeys 1 mg/kg (12 mg/m^2) twice weekly or above)?
A: 1.4-2.5 ×

Q: What about the lymphoid findings ([7]; monkeys 1 mg/kg or 1.5 mg/kg twice weekly) of the same molecule?
A: Reversible thymus atrophy and decreased germinal centres in lymph nodes

Q: And the “white blood cell (WBC) reduction, maximum” value ([7]; monkeys, onset 0.5 mg/kg (6 mg/m^2) twice weekly, reversible)?
A: 0.11 ×

Q: What about the “reticulocyte reduction, maximum” value ([7]; monkeys, onset 1 mg/kg (12 mg/m^2) twice weekly, reversible) of the same molecule?
A: 0.2 ×
